Measurements: the supplement of paper PMC9112550, “Optimization of the antimicrobial peptide Bac7 by deep mutational scanning” (BMC Biology, 2022)

tested on: Escherichia coli TOP10; experiment: shrunken log2 fold change of peptide-encoding DNA abundance (4.5 h post-induction vs induction); higher = less antimicrobial activity (less host growth inhibition); conditions: time post-induction: 4.5 h; library: site-saturation at positions 5, 18, 19, 20
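Also: peptides expressed intracellularly from a pBAD plasmid library in pooled LB shake-flask culture, induced with 0.3% L-arabinose, DNA abundance read by NGS, three biological replicates, DESeq2 with apeglm shrinkage.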

| Sequence | shrunken log2 fold change |
| --- | --- |
| RRIRKRPPRLPRPRPRPKVFPRP | -0.0531 |
| RRIRKRPPRLPRPRPRPYFAPRP | -0.0674 |
| RRIRQRPPRLPRPRPRPWFHPRP | 0.00902 |
| RRIRMRPPRLPRPRPRPHNKPRP | -0.305 |
| RRIRHRPPRLPRPRPRPHEWPRP | 0.00275 |
| RRIRLRPPRLPRPRPRPFGPPRP | 0.0996 |
| RRIRWRPPRLPRPRPRPQMQPRP | 0.0894 |
| RRIRPRPPRLPRPRPRPLACPRP | 0.265 |
| RRIRHRPPRLPRPRPRPWASPRP | -0.0831 |
| RRIRSRPPRLPRPRPRPQMGPRP | -0.046 |
| RRIRDRPPRLPRPRPRPYGHPRP | -0.012 |
| RRIRERPPRLPRPRPRPLLDPRP | -0.0911 |
| RRIRVRPPRLPRPRPRPNCSPRP | 0.0892 |
| RRIRCRPPRLPRPRPRPINEPRP | -0.116 |
| RRIRDRPPRLPRPRPRPSAAPRP | 1.02 |
| RRIRIRPPRLPRPRPRPYFYPRP | -0.469 |
| RRIRVRPPRLPRPRPRPAVEPRP | 0.565 |
| RRIRMRPPRLPRPRPRPCTTPRP | 0.104 |
| RRIRRRPPRLPRPRPRPSKDPRP | 0.0136 |
| RRIRIRPPRLPRPRPRPHLSPRP | -0.0549 |
| RRIRTRPPRLPRPRPRPHFNPRP | -0.556 |
| RRIRMRPPRLPRPRPRPKSTPRP | 1.44 |

| Sequence | shrunken log2 fold change |
| --- | --- |
| RRIRTRPPRLPRPRPRPQGTPRP | 0.0402 |
| RRIRYRPPRLPRPRPRPEHAPRP | 0.0635 |
| RRIRSRPPRLPRPRPRPWPKPRP | 0.228 |
| RRIRFRPPRLPRPRPRPMPGPRP | -0.0263 |
| RRIRQRPPRLPRPRPRPGDFPRP | -0.179 |
| RRIRSRPPRLPRPRPRPQRCPRP | -0.0342 |
| RRIRTRPPRLPRPRPRPAPAPRP | 0.463 |
| RRIRYRPPRLPRPRPRPIMLPRP | -3.12 |
| RRIRERPPRLPRPRPRPTDLPRP | 0.15 |
| RRIRGRPPRLPRPRPRPARIPRP | 0.208 |
| RRIRPRPPRLPRPRPRPYTAPRP | -1.06 |
| RRIRSRPPRLPRPRPRPSHAPRP | -0.449 |
| RRIRPRPPRLPRPRPRPKDWPRP | 0.342 |
| RRIRGRPPRLPRPRPRPACPPRP | 0.46 |
| RRIRKRPPRLPRPRPRPPAWPRP | 0.602 |
| RRIRQRPPRLPRPRPRPVVWPRP | 0.586 |
| RRIRIRPPRLPRPRPRPTWHPRP | -0.242 |
| RRIRKRPPRLPRPRPRPNYWPRP | 0.157 |
| RRIRCRPPRLPRPRPRPYVAPRP | -0.858 |
| RRIRSRPPRLPRPRPRPWQDPRP | -0.136 |
| RRIRNRPPRLPRPRPRPSYAPRP | -0.387 |
| RRIRDRPPRLPRPRPRPDLLPRP | 0.106 |

| Sequence | shrunken log2 fold change |
| --- | --- |
| RRIRPRPPRLPRPRPRPYVTPRP | -0.239 |
| RRIRKRPPRLPRPRPRPNVRPRP | -0.0184 |
| RRIRVRPPRLPRPRPRPYHQPRP | 0.00427 |
| RRIRTRPPRLPRPRPRPYENPRP | -0.0748 |
| RRIRLRPPRLPRPRPRPDRYPRP | -0.063 |
| RRIRKRPPRLPRPRPRPLVEPRP | 0.734 |
| RRIRRRPPRLPRPRPRPPTFPRP | 0.0767 |
| RRIRPRPPRLPRPRPRPTSAPRP | 0.156 |
| RRIRKRPPRLPRPRPRPSTSPRP | -0.0896 |
| RRIRMRPPRLPRPRPRPPCAPRP | 2.14 |
| RRIRMRPPRLPRPRPRPEEGPRP | 0.0237 |
| RRIRCRPPRLPRPRPRPADSPRP | -0.0251 |
| RRIRWRPPRLPRPRPRPRPDPRP | 0.518 |
| RRIRRRPPRLPRPRPRPQAHPRP | 0.544 |
| RRIRKRPPRLPRPRPRPELFPRP | 0.155 |
| RRIRMRPPRLPRPRPRPSAYPRP | 0.319 |
| RRIRFRPPRLPRPRPRPSSDPRP | -0.286 |
| RRIRDRPPRLPRPRPRPDRPPRP | -0.251 |
| RRIRIRPPRLPRPRPRPMITPRP | -0.616 |
| RRIRLRPPRLPRPRPRPENDPRP | -0.336 |
| RRIRARPPRLPRPRPRPQWSPRP | 0.245 |
| RRIRDRPPRLPRPRPRPNVFPRP | -0.268 |

| Sequence | shrunken log2 fold change |
| --- | --- |
| RRIRRRPPRLPRPRPRPCQPPRP | -0.0346 |
| RRIRRRPPRLPRPRPRPQCAPRP | 0.647 |
| RRIRPRPPRLPRPRPRPKTWPRP | 0.0474 |
| RRIRARPPRLPRPRPRPPALPRP | 0.415 |
| RRIRMRPPRLPRPRPRPRWGPRP | 0.279 |
| RRIRCRPPRLPRPRPRPLGSPRP | -0.423 |
| RRIRRRPPRLPRPRPRPIYHPRP | -0.258 |
| RRIRQRPPRLPRPRPRPRAMPRP | 0.0219 |
| RRIRPRPPRLPRPRPRPIFTPRP | -0.0736 |
| RRIRRRPPRLPRPRPRPISAPRP | 0.122 |
| RRIRIRPPRLPRPRPRPMPAPRP | 0.0451 |
| RRIRQRPPRLPRPRPRPAWWPRP | 0.95 |
| RRIRVRPPRLPRPRPRPTWAPRP | 0.194 |
| RRIRIRPPRLPRPRPRPIYHPRP | -0.622 |
| RRIRLRPPRLPRPRPRPLEYPRP | -0.116 |
| RRIRGRPPRLPRPRPRPTVYPRP | 0.185 |
| RRIRKRPPRLPRPRPRPQYHPRP | -0.432 |
| RRIRTRPPRLPRPRPRPRRYPRP | 0.108 |
| RRIRGRPPRLPRPRPRPTQWPRP | 0.387 |
| RRIRLRPPRLPRPRPRPIQQPRP | -0.0102 |
| RRIRWRPPRLPRPRPRPSCHPRP | -0.066 |
| RRIRVRPPRLPRPRPRPIVGPRP | 0.0676 |

| Sequence | shrunken log2 fold change |
| --- | --- |
| RRIRNRPPRLPRPRPRPASTPRP | -0.269 |
| RRIRGRPPRLPRPRPRPHYQPRP | -0.15 |
| RRIRYRPPRLPRPRPRPYDPPRP | -0.325 |
| RRIRSRPPRLPRPRPRPCSCPRP | 0.000754 |
| RRIRSRPPRLPRPRPRPRRNPRP | 0.128 |
| RRIRNRPPRLPRPRPRPLSYPRP | -0.319 |
| RRIRCRPPRLPRPRPRPWDVPRP | 0.0309 |
| RRIRSRPPRLPRPRPRPSRYPRP | -0.148 |
| RRIRVRPPRLPRPRPRPGGNPRP | -0.0392 |
| RRIRVRPPRLPRPRPRPIEMPRP | -0.267 |
| RRIRDRPPRLPRPRPRPRDTPRP | 0.575 |
| RRIRSRPPRLPRPRPRPMKRPRP | -0.115 |
| RRIRGRPPRLPRPRPRPRDNPRP | 0.0439 |
| RRIRKRPPRLPRPRPRPMQKPRP | -0.00412 |
| RRIRQRPPRLPRPRPRPYFMPRP | -0.89 |
| RRIRNRPPRLPRPRPRPEYHPRP | 0.0524 |
| RRIRYRPPRLPRPRPRPNEPPRP | 0.00196 |
| RRIRCRPPRLPRPRPRPIGNPRP | -0.221 |
| RRIRTRPPRLPRPRPRPHCTPRP | -0.298 |
| RRIRPRPPRLPRPRPRPLLPPRP | -0.0532 |
| RRIRMRPPRLPRPRPRPRQLPRP | 0.691 |
